Results on two substances are retold here after US20210277453.

Test in all cases: cell_activity
Data set [1] addresses TcI (cI857, A67T) (bacteriophage lambda) (UniProt P03034). The note with it: thermal derepression of GFP in E. coli, 34.2 to 40 C; text gives >1,432.
Data set [2] addresses TcI42 (bacteriophage lambda) (UniProt P03034). The note with it: thermal derepression of GFP in E. coli, 32.4 to 45.7 C.
Data set [3] has as its target TcI38 (bacteriophage lambda) (UniProt P03034). The note with it: thermal derepression of GFP in E. coli, 32.4 to 40 C.
The test system of data set [4] is TlpA (Salmonella typhimurium). The settings on record: thermal derepression of GFP in E. coli, 31.4 to 44.6 C.
The subject of data set [5] is TlpA39 (Salmonella typhimurium). The note with it: thermal derepression of GFP in E. coli, 31.4 to 44.6 C.
For data set [6], the system named is TlpA36 (Salmonella typhimurium). The note with it: thermal derepression of GFP in E. coli, 31.4 to 44.6 C.

Regarding tandem pR/pL operator/promoter, the results for the activity in data set [1], in data set [2] and in data set [3] were 1430 fold, 1690 fold and 1030 fold, respectively.
Consider TlpA operator/promoter, 52 bp, for which the activity in data set [4] was 355 fold; in data set [5], 1520 fold; in data set [6], 370 fold.
